Measurements from PMC4182837, “BosR Functions as a Repressor of the ospAB Operon in Borrelia burgdorferi”.

B1: IRs probe (ospC operator) (dsDNA)
DNA 1: CAATATTTTTCAAATTCTTCAATATTTATTCAAGATATTGAAGAATTTGAAAAAATTATTTTTTCAAATA
DNA 2: TATTTGAAAAAATAATTTTTTCAAATTCTTCAATATCTTGAATAAATATTGAAGAATTTGAAAAATATTG
B2: cisI probe (dsDNA)
DNA 1: TAATTAGAACCAAACTTAATTAAAACCAAACTTAATTGAAGTTATTATCATTTTATTTTTTTTCAATTTT
DNA 2: AAAATTGAAAAAAAATAAAATGATAATAACTTCAATTAAGTTTGGTTTTAATTAAGTTTGGTTCTAATTA
B3: cisII probe (dsDNA)
DNA 1: TGTTATTTGTTAATCTTATAATATAATTATACTTGTATTAAGTTATATTAATATAAAAGGAGAATATATT
DNA 2: AATATATTCTCCTTTTATATTAATATAACTTAATACAAGTATAATTATATTATAAGATTAACAAATAACA

biological target: BosR (Borrelia burgdorferi B31, UniProt O51592 1-176); assay: EMSA; 400 nM BosR, 1 nM probe, 50 ug/ml salmon sperm DNA; conditions: protein: recombinant; tags: C-terminal His6 (pET-23a); chain copies: 2; label: 5' digoxigenin on one strand

Question: Does B1 bind?
Answer: no binding

Question: Does B2 bind?
Answer: binds

Question: Does B3 bind?
Answer: binds
